In one test the target is HLA-A*32:01. Description: IEDB peptide-MHC binding, purified MHC/competitive/radioactivity; filed as Kd, often an IC50 or EC50 that approximates it; ≥ and ≤ were set here for values at or beyond the usual limits of such assays.
In another test the target is HLA-B*44:02. Described as above.
For the next test, the target named is HLA-B*44:03. The test is described as above.
The next test concerns the target HLA-A*29:02. The description is as above.
The next test addresses HLA-A*01:01. The test is described as above.
The target of another test is HLA-A*23:01. The description is as above.
Another test addresses HLA-A*26:01. Described as above.
The target in another test is HLA-A*30:02. The description is as above.
Test [1] addresses HLA-A*24:02. Described as above.
For the next test, the target named is HLA-B*08:01. The test is described as above.
For a further test, the target named is HLA-A*30:01. Described as above. To be noted: source organism: Vaccinia virus WR.
For the next test, the target named is HLA-A*02:01. In words: IEDB peptide-MHC binding, purified MHC/competitive/fluorescence; ≥ and ≤ were set here for values at or beyond the usual limits of such assays. To be noted: source organism: Vaccinia virus WR.
Test [2] deals with HLA-A*24:02. The description is as above. To be noted: source organism: Vaccinia virus WR.
In a further test the target is HLA-B*51:01. In words: IEDB peptide-MHC binding, purified MHC/competitive/radioactivity; filed as Kd, often an IC50 or EC50 that approximates it; ≥ and ≤ were set here for values at or beyond the usual limits of such assays. To be noted: source organism: Dengue virus 1 Brazil/97-11/1997.
Where [3] appears, read: source organism: Dengue virus 2 Jamaica/1409/1983.
[4] abbreviates: source organism: Dengue virus 4 Philippines/H241/1956.
[5] abbreviates: source organism: Mammarenavirus juninense.
[6] abbreviates: source organism: Mammarenavirus machupoense.
Setting [7] is: source organism: Dengue virus 3 Martinique/1243/1999.
Where [8] appears, read: source organism: SARS coronavirus Tor2.
[9] abbreviates: source organism: Vaccinia virus WR.
Where [10] appears, read: source organism: Dengue virus 1 Brazil/97-11/1997.

pIC50, pKd: −log10 of the molar value.

This is an account of results in the Immune Epitope Database (IEDB).

As usually defined, the pKd is −log10 of the Kd, conventionally taken in molar units. What is called pIC50 is the IC50 on a negative log10 scale, so that one unit is a factor of ten.

KTPVESWEEV: the pKd with HLA-A*32:01 (setting [3]) was 5.79.

For AERTGEPDY, the figures for the pKd with HLA-B*44:02 (setting [4]) and with HLA-B*44:03 (setting [4]) were 6.41 and 6.07, respectively.

Turning to KAEVSMHEV, the pKd in the test with HLA-A*29:02 (setting [5]) was no more than 4.10; with HLA-A*01:01 (setting [5]) it was 4.76; with HLA-A*23:01 (setting [5]) it was no more than 4.16; in the test with HLA-A*26:01 (setting [5]) it was no more than 4.11; in the test with HLA-A*30:02 (setting [5]) it was no more than 4.28; in the test with HLA-A*24:02 [1] (setting [5]), no more than 4.11.

Regarding NDLKYSWKTW, the pKd in the test with HLA-A*32:01 (setting [4]) was 5.05; with HLA-B*44:02 (setting [4]) it was 5.57.

Turning to CGDPSSLDY, the pKd in the test with HLA-A*29:02 (setting [6]) is 5.33; with HLA-A*01:01 (setting [6]) it was 8.17; with HLA-A*23:01 (setting [6]), no more than 4.11; in the test with HLA-A*26:01 (setting [6]), no more than 4.13; with HLA-A*30:02 (setting [6]) it was 6.06; in the test with HLA-A*24:02 [1] (setting [6]) it was no more than 4.11.

As for KTWGKAKML, the pKd in the test with HLA-A*32:01 (setting [3]) was 7.41.

As to GEKKKLRPRW, the pKd with HLA-B*44:02 (setting [7]) was 6.47; in the test with HLA-B*44:03 (setting [7]), 5.59.

Consider LFARTRSMW, for which the pKd was 4.99 with HLA-A*29:02 (setting [8]); no more than 4.11 with HLA-A*01:01 (setting [8]); 6.31 with HLA-A*23:01 (setting [8]); no more than 4.11 with HLA-A*26:01 (setting [8]); no more than 4.08 with HLA-A*30:02 (setting [8]); 6.84 in the test with HLA-A*24:02 [1] (setting [8]).

As to CWFADTNLI, the pKd is 5.89 in the test with HLA-A*29:02 (setting [6]), 7.05 with HLA-A*23:01 (setting [6]) and 7.00 in the test with HLA-A*24:02 [1] (setting [6]).

As to RVRNIIASI, the pKd is 7.66 with HLA-B*08:01 (setting [9]), 9.99 with HLA-A*30:01 and 8.98 in the test with HLA-A*32:01 (setting [9]).

In the case of KTWMINIMI, the pKd in the test with HLA-A*32:01 (setting [9]) is no more than 4.11.

GYTMHANYIF: the pKd is 6.39 with HLA-A*29:02 (setting [8]); no more than 4.36 with HLA-A*01:01 (setting [8]); 7.79 with HLA-A*23:01 (setting [8]); no more than 4.39 with HLA-A*26:01 (setting [8]); 5.12 in the test with HLA-A*30:02 (setting [8]); 7.95 with HLA-A*24:02 [1] (setting [8]).

NVEYRFLVI: the pKd with HLA-B*08:01 (setting [9]) is 6.63. The pIC50 in the test with HLA-A*02:01 is no more than 3.84; in the test with HLA-A*24:02 [2] it was 4.86.

With FQPHQLWTTL, the negative logarithm of the Kd (pKd) in the test with HLA-A*32:01 (setting [10]) is 6.12.

As to IAFLRFLAI, the pKd is 8.90 with HLA-B*08:01 (setting [10]) and 8.02 in the test with HLA-B*51:01.

Regarding RLGYILEEI, the pKd with HLA-A*32:01 (source organism: Dengue virus 4 Dominica/814669/1981) was 5.95.

As for STANVSLAA, the pKd with HLA-A*01:01 (setting [7]) was 5.69.

For the sequence MYASALVLL, the pKd with HLA-A*29:02 (setting [8]) is no more than 4.65; with HLA-A*01:01 (setting [8]), no more than 4.18; with HLA-A*23:01 (setting [8]), no more than 4.33; with HLA-A*26:01 (setting [8]), 5.34; with HLA-A*30:02 (setting [8]), no more than 4.47; in the test with HLA-A*24:02 [1] (setting [8]) it was no more than 4.19.

As to NYLRKRVMF, the pKd with HLA-A*29:02 (setting [8]) was 5.49; with HLA-A*01:01 (setting [8]), no more than 4.11; in the test with HLA-A*23:01 (setting [8]), 4.95; with HLA-A*26:01 (setting [8]), no more than 4.22; with HLA-A*30:02 (setting [8]) it was 5.04; in the test with HLA-A*24:02 [1] (setting [8]) it was 4.74.

HMLEFLYSF: the pKd in the test with HLA-A*32:01 (setting [9]) is 9.53.

Consider GTINRILVI, for which, in the test with HLA-A*32:01 (setting [9]), the pKd is 7.84.

In the case of LVSTQEFRY, the pKd was 8.16 in the test with HLA-A*29:02 (setting [8]); 7.51 with HLA-A*01:01 (setting [8]); 4.96 in the test with HLA-A*23:01 (setting [8]); 5.75 in the test with HLA-A*26:01 (setting [8]); 8.23 with HLA-A*30:02 (setting [8]); 4.90 with HLA-A*24:02 [1] (setting [8]).
